{"source": "patent US20220195404", "biological_target": "TevCas9 H557A (I-TevI domain-linker-SaCas9 H557A nickase) (Enterobacteria phage T4 / Staphylococcus aureus) (UniProt P13299+J7RUA5)", "test": "cleavage_in_vitro", "data": [{"substance": "EGFR guide RNA ; EGFR wild-type DNA substrate", "values": [{"measurement": "relative cleavage rate (fold rate (reference))", "setting": "4-fold slower than exon 19 deletion substrate", "value": 1}]}, {"substance": "EGFR guide RNA ; EGFR exon 19 deletion DNA substrate", "values": [{"measurement": "binding signal (fold rate vs wild-type EGFR)", "setting": "faster cleavage of exon 19 deletion, PAM not stated", "value": 4}]}]}
